The values that follow come from patent publication US7906119 (Human Genome Sciences, dated 2011).

For orientation: Kd means the free concentration of one partner at which half of the binding sites on the other are occupied at equilibrium, for simple one-to-one binding. A lower Kd goes with a tighter complex. A word on the koff: it is the rate constant with which the complex falls apart. In general, kon refers to a measure of how fast the partners come together.

The assay addresses PA heptamer (Bacillus anthracis, UniProt P13423 197-764). The assay can be described thus: BIAcore; PA heptamer immobilized on CM5 chip, IgG1 in solution.

PA heptamer, sequence (P13423 197-764): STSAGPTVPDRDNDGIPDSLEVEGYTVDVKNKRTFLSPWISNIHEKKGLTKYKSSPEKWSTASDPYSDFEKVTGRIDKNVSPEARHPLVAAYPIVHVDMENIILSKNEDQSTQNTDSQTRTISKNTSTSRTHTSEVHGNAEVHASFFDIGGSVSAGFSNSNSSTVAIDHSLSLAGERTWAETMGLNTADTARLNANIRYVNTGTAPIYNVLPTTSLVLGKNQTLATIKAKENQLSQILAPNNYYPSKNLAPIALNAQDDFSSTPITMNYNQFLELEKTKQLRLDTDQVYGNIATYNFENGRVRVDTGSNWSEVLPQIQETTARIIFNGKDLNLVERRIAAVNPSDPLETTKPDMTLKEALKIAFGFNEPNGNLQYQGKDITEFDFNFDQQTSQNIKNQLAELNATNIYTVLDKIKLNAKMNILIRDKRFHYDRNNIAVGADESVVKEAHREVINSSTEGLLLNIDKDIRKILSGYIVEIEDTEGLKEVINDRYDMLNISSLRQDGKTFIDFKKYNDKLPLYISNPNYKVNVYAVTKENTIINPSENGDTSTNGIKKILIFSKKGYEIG

B1: PWD0283 (IgG1 format) (antibody, V domains shown)
VH: EVQLLESGGGLVQPGGSLRLSCAASGFTFSSYATSWVRQAPGKGLEWVSAISGSGGSTYYADSVKGRFTISRDNSKNTLYLQMNSLRAEDTAVYYCARVGGAIRFDSWGRGTLVTVSS
VL: SYELTQPPSASETPGQRVSISCSGGTSNIGSNTINWYQQVPGTAPKLLIYFNNRRPAGVPARFSASKSGTSASLTISGLQSEDEADYYCSAWDDSLSGVVFGGGTKLTVLG
In the case of B1, the dissociation constant (Kd) was determined as 0.187 nM, the koff amounted to 0.000426 s⁻¹ and the kon was 2.28e+06 M⁻¹ s⁻¹.
